Tests used:
[1] = molecular target: Rb expressed from CMV-Rb in Saos-2 cells (UniProt P06400); test: co-IP
[2] = molecular target: endogenous Rb of CV-1 cells (African green monkey (endogenous in CV-1)); test: co-IP
[3] = molecular target: catalytic subunit of protein phosphatase 1 (PP1c), α isoform (human) (UniProt P62136)
[4] = molecular target: catalytic subunit of protein phosphatase 1 (PP1c), α isoform (human, UniProt P62136 1-300); test: ITC

catalytic subunit of protein phosphatase 1 (PP1c), α isoform (human), sequence (P62136 1-300): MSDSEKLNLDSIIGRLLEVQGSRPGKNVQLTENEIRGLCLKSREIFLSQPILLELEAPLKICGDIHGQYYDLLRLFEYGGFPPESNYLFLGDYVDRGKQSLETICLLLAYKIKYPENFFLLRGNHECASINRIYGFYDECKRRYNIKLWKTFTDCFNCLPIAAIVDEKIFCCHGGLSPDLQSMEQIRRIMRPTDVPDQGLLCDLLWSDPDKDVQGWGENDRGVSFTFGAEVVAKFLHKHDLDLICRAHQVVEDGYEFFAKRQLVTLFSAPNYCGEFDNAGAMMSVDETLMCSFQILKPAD

Molecule: PP1 in transfected Saos-2 cells (exogenous myc-PP1c together with endogenous PP1) (from UniProt P62136 1-330) (enzyme)
- PP1 co-precipitated, percent of the immunoprecipitated Rb [1]: 30%

Molecule: endogenous PP1 of CV-1 cells (enzyme)
- PP1 co-precipitated, percent of the immunoprecipitated Rb [2]: 2%

B1: phosRb^771–928 (domain or fragment)
chain: YASTRPPTLSPIPHIPRSPYKFPSSPLRIPGGNIYISPLKSPYKISEGLPTPTKMTPRSRILVSIGESFGTSEKFQKINQMVCNSDRVLKRSAEGSNPPKPLKKLRFDIEGSDEADGSKHLPGESKFQQKLAEMTSTRTRMQKQKMNDSMDTSNKEEK
- apparent KM of dephosphorylation by PP1c (steady-state analysis) [3]: 6 µM

B2: phosRb^771–874 (domain or fragment)
chain: YASTRPPTLSPIPHIPRSPYKFPSSPLRIPGGNIYISPLKSPYKISEGLPTPTKMTPRSRILVSIGESFGTSEKFQKINQMVCNSDRVLKRSAEGSNPPKPLKK
- apparent KM of dephosphorylation by PP1c (steady-state analysis) [3]: 30 µM

B3: Rb^870–882 peptide (peptide)
peptide: KPLKKLRFDIEGS
- Kd [4]: 1200 nM
